Experimental data taken from the domain aggregation screens of Martell et al. (2025).

Assay: soluble fraction after stress (log2 fold change); higher = more stays soluble; pooled small domains, quantitative proteomics
Conditions: stress: pH 4
Outline: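 Aggregation propensity is estimated from the fold change in each domain's soluble amount after acid stress. Pooled small-domain libraries were stressed at pH 4, and higher log2 values mean more stayed soluble.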

Sequence | soluble fraction (log2)
HMLSTNDYNENKNKLIKDFEIKFIIKHLKLNKGNVAATARSINFHPVSLRQKIAKLGIDVDEVMAG | -0.341
HMLSTQEYIKKNIENGSWKVGEKIPSENNLTEILGVSRASIRVAIQQFIALDVLNSIHGKGTFVKTNNIMG | 0.207
HMLTALTDREEEILVLLAHNLSNKEIAKRLNLSVNTVRNHTSHIYEKLNVTSRRKAITLAQSLHLLPP | -0.067
HMLTAPMPGIVRQVNVDTGQKVRKGQPLMVLEAMKMEHQIIAPQAGKIEAIHYNEGDRVEMGSVLISIF | -0.538
HMLTAPMPGIVTEILVKEGQRVRSGQPLMILEAMKMEHQVTAPKSGQIEKIYFSEGEKVDMGSDLLSIS | -0.0146
HMLTEEVEISLMDMTKPTQPATIKTTATIQKGATTVMPKQIKMPEGYEFYGNYKMDQPFELTMTFVVKKI | -0.0427
HMLTGESDNVEKSINKLGTENLALADQTNMGFKGTFINSGHGMAIVVKTGMQTELGKIASMIQIA | 0.22
HMLTGISALKPTEAFPDEIFYEIFEIEDNIERTQYIESLRNTARQLKRVTEFNNLYKSFVLDYAQRQKQ | -0.375
HMLTKAEEQVMDYLWKLEKAFVKDILDEFPEPKPAYTTVSTMVRILEKKGMVGYTAYGKNHQYYPL | -1.18
HMLTKSELVFDTLKKRIIDGELEPGTELVISRISEEFNVSTIPVREAIKTLASEGLVEMEPHKSAKVAE | -0.0422
HMLTKSVLGNQIKVLRLEKGLSQEEFGAPVDLSRSAVSQIESGQMYPSLESIGKIVKYYSTSWDNLVG | -0.162
HMLTLDEKRRLQIMRVQVALTSLGLYNGRVDGVLNAETKLGLEFFQDLKGLPKSGTMTTPTLNALGVPA | -0.347
HMLTLSGPEHAVVRALWPEPELDFDVLIRKTGLPSAQLMTLAMQLEMKKIIRRLPGRRLALMDDIRR | -0.716
HMLTRSTVNVETGTAAIGLGKLYGVYDMSRKGLKYSFSVDSDAMTKVMEMLLPLGIKSLTVEPPS | -0.658
HMLTTADLMMVHANSNKAIDYIVTDDNTKLTVDEPVTAKWITTADSIYRAVAYYNKVGDGKAQIVSVGN | 0.0559
HMLTYPEHVRLRMIELRKTRSLSQSEFGTYLGLSYQTISSLELGRHEWSLAHIQTALLRFELPPNYF | -1.82
HMLVATFGPTTGWEGREIIWDVDRFILVGHGAVPAAGVLDYDRRGQLIWAQPELRAWVVEVDRWETG | -1.61

Sequence | soluble fraction (log2)
HMLVMTDNVIKAINDLLNYEAAAGIKKKQRYTAYQIYKELSEQGVYHGSRRRMEEVVSKLRVERNQI | -0.249
HMLVPWKSANLFKLVEPNFRLAERKIPMLPSADREKLQEIMSDMKDAIVDNDKMALMKLDEELTDFLFDFV | -1.03
HMLVSPLDEIPGIGRNRKKTLLNHFGSAKTIEGASLEDLKKVDGISELIAKKIYNYFHLNKNF | 0.104
HMLWTDTKYVTVPDFVGKEPKEIESSYLYNIEYHGEGTKVISQQPAAFSRTIEGGTVRLYLG | 0.186
HMLYGRRFQVEGLNLERYLRAAADSGIPLKGARRFGRTLTGVAAEEHMAALEALARQGGWLFTPLEAVGAN | -0.0895
HMLYKNIAKKLRFRINSDEFAIGDVLPTERQLMEEYQASRVSIRKAIDELVAIDLIEKKQGSGTYIKQKEV | -0.493
HMMESLGIRLKRLRKDKGLTQVELGKLSGVTGVTIGYWEKDLNEPGSKALSKLAQALGTTESYLLYGVS | 0.22
HMMNNKEIGTRIAVLRKGMGDSQAKLAERLDVSPQAVSKWETGQSLPDIGNLLKLSWLFRTSINHILEGS | -0.384
HMNADAPWSPFSPGFTGPMNRPVIGLVTKADLANPQRISLVESWLVQAGAQKVFVTSALENTGVDEMFIFL | -0.288
HMNADLDIQNVNGNTPLWEAVMRYRGDGFFIEQLLKNGANPDIKNNYGVSPKSLARTIANYDVRRFFN | -0.333
HMNADSLIGENIRISERVSNMDQTGMAVVHGQEWTVRTRNDNEIIEPGEEAKILAISGVKLIVEK | -0.0665
HMNAESLIGDRAVVTVAIERNKRGRVDVTGQDWAATTRDGEEIKVGQEVLVVGISGVALIVEER | 0.164
HMNAIYKFVLGMIGKRSGVVTTLPSKKQVEFQANMLAEKFMQNGIDPNALKSPEQVKNVLANIDQ | 0.01
HMNALVAKYKQGVTEEQQQGQGIIIIKRVVVRDQEAWVYEKKIFDWGGVSYFRDKQRITASTFNQETAL | -1.12
HMNAQLTTQEAADLLNVSRPHLVKLLEDGELPFLRTGKHRRVRLADLLQFKNAREQASVQAMDELSRQAQ | -0.177
HMNARSTSYSDFIARVDKDEVASVRLDGETVTYQAADGTTYTTVKPESDPIAERLIAKGIEVNVVRQ | -0.519
HMNASITVPDVRNLTVKQASEQLLASGFTPIPYAATKDGVGNDIVYAQDPPPSVLARSGDQITITYNPA | 0.198
